B1: TRIM55 (parent)
chain: FQASNPYLPTRGGTTMASGGRFRC
B2: LPCAT4 (parent)
chain: HDPLYGKLFSTYLRPPHTSRGTSQ

Variants of: B1
Test: protein stability index of a GFP-peptide fusion (GPS, HEK-293T) (PSI 1-6); higher = more stable
Conditions: c terminus: a fixed tail appended
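Further: lentivirally expressed fusions sorted by FACS into six bins by GFP to DsRed ratio, PSI derived from sequencing read proportions per bin multiplied by bin number.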

Protein stability index, by site and new letter:
C24: M 1.37; W 1.94; D 2.6; P 1.41; N 3.51; F 2.23; Q 2.22; Y 1.62; E 2.51; S 1.43; H 2.08; T 2
R21: A 1.18; P 2.12; C 2.35; Q 1.85; K 3.08; M 1.81; I 1.42; E 2.18; Y 1.68; H 1.68
N5: K 1.78; A 2.65; P 2.22; F 3.23; V 2.1; H 3.58; Y 2.14
G20: I 1.73; K 2.1; Q 1.68; N 1.72; Y 1.63; A 2.62; W 2.07; S 1.34; L 2.24; D 1.72; V 1.77; R 1.96
Y7: K 2.91; P 3.54; C 3.15; S 3.18; V 3.13; Q 3.45; L 1.9; H 3.36; T 3.27; N 3.4; E 3.2
P9: R 2.1; E 2.17; L 2.65; Y 1.88; Q 1.72; N 1.85; A 1.14; C 2.04; V 2.2; K 2.09; S 1.7
G19: M 1.49; K 2.39; R 1.9; Q 2.06; A 1.7; I 2.04; S 1.83; C 2.9
F22: W 2.51; S 1.75; P 3.87; T 1.8; Y 2.47; E 2.46; Q 3.22; M 2.25; D 1.41; K 2.61; C 2.18; R 2.13
T10: E 2.99; K 1.74; Q 1.93; N 2.23; F 2.19; G 2.03; H 2.17; A 2.06; L 2.4; W 2.81; C 2.17; D 1.61
R23: G 1.6; H 1.56; C 2.9; K 2.1; D 2.02; A 2.37; S 1.8; T 1.64; I 1.62; P 2.91; Y 2.5; L 2.98
S4: Y 2.12; E 1.95; P 1.8; M 2.09; V 2.34; D 1.24; R 1.44; N 1.72; L 1.66; Q 1.86; F 2.57
G13: C 1.65; R 1.7; P 1.7; T 1.65; F 1.22; N 1.22; E 1.46; L 3.49; A 1.68; D 1.64; K 2.74
Q2: V 1.74; H 2.99; D 3.43; W 2.3; E 3.38; P 1.61; T 1.68; R 2.68; K 2.85; S 2.13
A3: G 1.95; H 1.24; L 1.8; K 1.69; D 2.71; W 2.95; Q 2.84; Y 1.95; T 1.54; V 2.28
L8: V 2.03; H 1.56; S 2.7; G 2.02; P 1.92; I 2.79; C 3.09; Q 2.22; Y 1.59; T 2.79; K 1.14; E 3.39
S18: T 2.23; R 2.24; M 2.51; P 1.79; L 2.45; Y 2.22; G 2.35; F 1.95; C 1.35; Q 2.07
F1: I 3.13; P 3.91; G 3.91; D 3.43; N 3.55; Y 2.06; E 3.59; W 2.58; C 2.2; T 3.49; S 3.52; H 3.24
R11: F 2.01; M 2.11; Y 2.28; H 1.57; N 1.86; L 2.15; E 2.29; P 2.13; S 2.02; T 1.65; I 2.46
M16: C 1.77; A 1.57; W 1.42; G 2.5; F 1.76; K 3.34; N 2.02; S 2.67; E 1.12; Y 1.98; H 1.69
P6: H 2.37; N 2.72; A 1.96; D 2.07; F 2.12; L 2.65; S 1.65; Q 2.48
T14: F 1.5; M 2.32; H 1.37; E 2.09; C 2.23; G 1.67; P 2.47; A 1.93; V 1.54; I 2; Y 1.5; L 2.34
G12: C 2.23; R 2.79; D 2.06; N 1.62; I 2.77; A 1.63; Q 1.34; M 1.05; W 2.35; V 3.34; Y 1.81
T15: M 1.72; H 1.18; A 2.24; S 1.69; K 2.19; G 2.85; R 2.93; V 2.54; L 1.69; Q 1.65; W 1.75; C 1.28
A17: H 1.85; W 1.76; D 1.76; T 1.84; Q 2.02; S 2.14; K 1.79; F 1.88; E 2.52; R 2.27; G 1.45

Variants of: B2
Test: as above
Conditions: c terminus: a fixed tail appended

Protein stability index: each site, then its substitutions
S23: A 3; G 2.18; W 2.4; L 2.39; D 3.17; R 2.45; K 2.51; V 2.49; I 2.3; P 2.87; N 2.77; C 2.61; E 2.64; Y 2.19; F 2.09; H 2.73; Q 2.52; T 2.66; M 2.34
Q24: A 2.28; E 3.01; C 2.64; P 2.43; V 2.42; D 3.28; G 2.36; R 2.39; N 2.78; K 2.56; H 2.3; T 2.53; Y 2.07; L 2.29; I 2.11; M 2.45; W 2.13; F 2.28; S 2.72
T22: L 2.81; V 2.12; H 2.81; F 2.42; A 2.66; S 2.74; I 2.22; W 1.98; C 2.43; Y 2.13; K 2.61; R 2.48; N 2.8; Q 2.32; E 3.04; M 2.72; G 2.75; D 2.6; P 2.59
G21: C 2.51; L 2.48; H 2.11; K 2.55; Y 1.87; I 2.41; S 2.67; N 2.42; V 2.82; T 2.49; Q 2.95; R 2.42; W 2; F 2.46; M 2.67; D 3.4; P 2.56; E 2.69

From the supplement of paper PMC10567573
